The assay concerns the target T1, Recombinant human ROR1-Fc chimera (human, UniProt Q01973 30-406).
T1 construct: receptor tyrosine kinase-like orphan receptor 1 (ROR1), human; recombinant ROR1-Fc chimera, R&D Systems Cat. No. 9490-RO; also called receptor tyrosine kinase-like orphan receptor 1; recombinant ROR1; source: bought: R&D Systems (Cat. No. 9490-RO)
Briefly: SPR; Biacore X100; ROR1-Fc amine-coupled on a CM5 chip (~3,200 RU); protein analyte premixed with CS-E (CS-E:protein molar ratio 7:1), 30 μl/min, 120 s, dissociation 130 s, 25°C; 50 mM Tris-HCl pH 7.5. The conditions noted are these: both partners purified. In general terms: SPR reads the build-up and loss of mass on a sensor chip optically.

The values that follow come from PMC9194504, “Chondroitin Sulfates Control Invasiveness of the Basal-Like Breast Cancer Cell Line MDA-MB-231 Through ROR1” (Frontiers in Oncology, 2022).

T1 sequence (Q01973 30-406, change not shown): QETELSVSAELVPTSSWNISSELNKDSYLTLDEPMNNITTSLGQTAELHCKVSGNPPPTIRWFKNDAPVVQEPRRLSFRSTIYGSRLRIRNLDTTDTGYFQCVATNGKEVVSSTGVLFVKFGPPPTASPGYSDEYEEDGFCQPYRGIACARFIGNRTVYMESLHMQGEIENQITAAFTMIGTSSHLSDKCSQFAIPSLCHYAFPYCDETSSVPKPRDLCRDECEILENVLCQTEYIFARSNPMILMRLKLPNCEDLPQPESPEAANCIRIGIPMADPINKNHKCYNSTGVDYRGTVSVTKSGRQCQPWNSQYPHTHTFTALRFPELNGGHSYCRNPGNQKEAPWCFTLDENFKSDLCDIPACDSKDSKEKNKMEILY

B1: recombinant human DKK1 (ligand, UniProt O94907 32-266, looked up)
chain: TLNSVLNSNAIKNLPPPLGGAAGHPGSAVSAAPGILYPGGNKYQTIDNYQPYPCAEDEECGTDEYCASPTRGGDAGVQICLACRKRRKRCMRHAMCCPGNYCKNGICVSSDQNHFRGEIEETITESFGNDHSTLDGYSRRTTLSSKMYHTKGQEGSVCLRSSDCASGLCCARHFWSKICKPVLKEGQVCTKHRRKGSHGLEIFQRCYCGEGLSCRIQKDHHQASNSSRLHTCQRH
notes: Dickkopf-1 (DKK1), human, recombinant, R&D Systems Cat. No. 5439-DK/CF; also called Dickkopf-1; source: bought: R&D Systems (Cat. No. 5439-DK/CF)
With B1, the binding result is “binds”.
